The record followed here is paper PMC3089477.

What all share (assay): EMSA
For data set [1], the target named is T1, BcnI wt (UniProt Q8RNV8 1-238).
T1 sequence: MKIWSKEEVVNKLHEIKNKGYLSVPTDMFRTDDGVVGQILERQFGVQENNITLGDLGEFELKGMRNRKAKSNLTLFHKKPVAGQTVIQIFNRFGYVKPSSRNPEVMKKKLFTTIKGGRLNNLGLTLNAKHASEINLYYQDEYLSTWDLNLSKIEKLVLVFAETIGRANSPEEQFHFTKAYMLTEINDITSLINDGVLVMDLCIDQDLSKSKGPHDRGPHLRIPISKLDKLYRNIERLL

For data set [2], the target named is T2, BcnI H77A+H219N (UniProt Q8RNV8 1-238, H77A;H219N).
T2 sequence: T1 sequence with H77A, H219N

The target of data set [3] is T3, BcnI H77N (UniProt Q8RNV8 1-238, H77N).
T3 sequence: T1 sequence with H77N

For data set [4], the target named is T4, BcnI H77N+H219N (UniProt Q8RNV8 1-238, H77N;H219N).
T4 sequence: T1 sequence with H77N, H219N

The target in data set [5] is T5, BcnI H77A (UniProt Q8RNV8 1-238, H77A).
T5 sequence: T1 sequence with H77A

Data set [6] addresses T6, BcnI H219Q (UniProt Q8RNV8 1-238, H219Q).
T6 sequence: T1 sequence with H219Q

For data set [7], the target named is T7, BcnI H219N (UniProt Q8RNV8 1-238, H219N).
T7 sequence: T1 sequence with H219N

Numbering of substitutions follows the chain as printed.

B1: CG oligoduplex (cognate) (dsDNA)
DNA 1: CGCACGACTTCCCGGAAGAGCACGC
DNA 2: GTTGCGTGCTCTTCCGGGAAGTCGTGCG
One may read the Kd as a measure of binding affinity in units of concentration. Read a low Kd as a tighter complex. On to B1, for which the Kd stood at 0.5 nM in data set [1]; 0.5 nM in data set [2]; 0.3 nM in data set [3]; 20 nM in data set [4]; 0.25 nM in data set [5]; 0.6 nM in data set [6]. Also, the Kd in data set [7] turned out to be 0.4 nM.

B2: TA oligoduplex (miscognate) (dsDNA)
DNA 1: CGCACGACTTCCTGGAAGAGCACGC
DNA 2: GTTGCGTGCTCTTCCAGGAAGTCGTGCG
Consider B2, for which the equilibrium dissociation constant (Kd) in data set [5] worked out at 25 nM.
